Conditions: Streptomyces albogriseolus, Thermal, DSC, reversible: yes, whole UniProt chain shown

B1: Subtilisin inhibitor wild type, P01006 (protein)
chain: MRNTGAGPSPSVSRPPPSAAPLSGAALAAPGDAPSALYAPSALVLTVGKGVSATTAAPERAVTLTCAPGPSGTHPAAGSACADLAAVGGDLNALTRGEDVMCPMVYDPVLLTVDGVWQGKRVSYERVFSNECEMNAHGSSVFAF
unfolding free energy (pH 3.2, 53.36 °C, glycine 25 mM): 5.55 kcal/mol | Tm (pH 3.2, glycine 25 mM): 53.4 °C | unfolding enthalpy (calorimetric) (pH 3.2, glycine 25 mM): 106 kcal/mol | unfolding free energy (pH 7, 82.21 °C, Sodium phosphate 25 mM): 6.03 kcal/mol | Tm (pH 7, Sodium phosphate 25 mM): 82.2 °C | unfolding enthalpy (calorimetric) (pH 7, Sodium phosphate 25 mM): 190 kcal/mol | unfolding free energy (pH 9.5, 80.7 °C, glycine 25 mM): 6.04 kcal/mol | Tm (pH 9.5, glycine 25 mM): 80.7 °C | unfolding enthalpy (calorimetric) (pH 9.5, glycine 25 mM): 186 kcal/mol
